In the nanobody polyreactivity screen of Harvey et al. (2022):

Assay: yeast display, Sf9 membrane polyspecificity reagent, FACS + sequencing; frameworks hold sequencing errors
Summary of the method: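 After 36–48 hours of galactose induction, yeast (Saccharomyces cerevisiae BJ5465) displaying a synthetic nanobody library were stained at 4 °C for 1 hour with 10% biotinylated, detergent-solubilized Sf9 membrane reagent. Streptavidin microbeads enriched the stained cells before FACS sorting into low and high (top ~1%) gates on anti-HA and streptavidin fluorescence. Each clone's polyreactivity label reflects its gate of origin.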

| Sequence | polyreactivity (PSR sort gate) |
| --- | --- |
| HVQLVESGGGLVQAGGSLRLSCAASGSTFSGYAMGWYRQAPGKERELVAAISSSGGSTYYADSVKGRFTISRDNAKNTVYLQMNSLKPEDTAVYYCNADEYRGTSTEFEYWGQGTQVTVSS | high polyreactivity |
| HVQLVESGGGLVQAGGSLRLSCAASGTFYKNAMGWYRQAPGKERELVAAISWRGGRTYADSVKGRFTISRDNAKNSVYLQMNSLKPEDTAVYYCNKRFYPEHYYWGQGTQVTVSS | high polyreactivity |
| HVQLVESGGGLVQAGGSLRLSCAASGYTFVPYAMGWYRQAPGKERELVAAISSSGGDTYYADSVKGRFTISRDNAKNTVYLQMNSLKPEDTAVYYCNTGVYVWQYWYYGFDYWGQGTQVTVSS | low polyreactivity |
| HVQLVESGGGLVQAGGSLRLSCAHSGIIFRTNAMGWYRQAPGKEREFVAAISAGATRKYYADSVKGRFTISRDTAKNTVYLQMNSLKPEDTAVYYCAAASGYDYWGQGTQVTVSS | high polyreactivity |
| HVQLVESGGVLVQAGGSLRLSCAATGSIFRNNAMGWYRQAPGKERDLVAAISSSGGSTFYADSVKGRFTISRDNAKNTVYLQMNSQNPEDTAVYYCAARVRSELIKRYDWGQGTQVTVSS | high polyreactivity |
| HVQLVESGRGLVEAGGSLRLSCAAYGLGCTVNAMVWYIQAPGTERELVARIVWPGITYADSVKGRFTISLDNAMNTVYLQMNSQKPEDTAVYYCAAVWLHHSYYAKYDYWGQRTQVTVSS | low polyreactivity |
| HVQLVETVGGLVQAGGSLRLSCAASGSNFDPNAMGWYRQAPVKERELVAAISWSGGSTYYADSVKGRFTISRDNAKNNVYLQMHSLKPEDTAVYYCNAQFYDSYSYTNDYWGQGTQVTVSS | low polyreactivity |
| HVQVVESGGGLVQEGGSLRLICAASGYLFAYYAMGWFRQAPGKERELVAPIRSGGSTNYADSVKGRFTISRDNAKNTVYLQMNSLKPEDTAVYYCAKGDRRWTLCRPDYDYWGQGTQVTVAS | low polyreactivity |
| IIQAGGSLRLSCAASVRTFSGYAMGWYRQAPGKERELIADITSGGSTYYADSVKGRFTISRDNAKNTVYLQMNSLKPEDTAVFYCCRDDRLAGDYWGQGTQVNVSS | low polyreactivity |
| KLQLVESGRGLVQEGGSLRLSCAASGSTFGANAMGWYRHAPGKASEFVAAISRSGVRTYYADSVKGRFTISRDNAKNTVYLQMNSQKPEDTAVYYCAAYGYWWTYTRDDYWGQGTQGTVSS | low polyreactivity |
| KVHLVESGGGLVQAGGSLRLSCPAAGFTLDQYAMGWYRQAPGKEMELVAVITSGVNTYYADSVKGRFTISRDNAKNTVYLQMNSLKPEDTAVYYCAKDVCDPFYDPFEYWGQGTQVTVSS | low polyreactivity |
| KVNIEESGGGLVQAGGSLRLSCAAYGSIFRYYAMGRYRQATGKERELVASISSSGGSTYYADSEKGRFTISRDNAKNTVYLQMNSLKPEDTAVYYCAAVRHRNYGYWGQGTQVTVSS | high polyreactivity |
| KVQIVESVGGLVQAGASLRLSCAASGSIFRYYPMGWYRQAPGKERELDAAISSSGTTYYADSVKGRFTISRDNAKNTVYLQMNRLKPEDCAVYYCAAVWTYWYYGDDYWGLGTQVTVSS | low polyreactivity |
| KVQLVESGGGLVQAGGRLRLSCAPSGSIFGTNTMGWYRQAPGTERELVAAIRLSDSSTYYADSVKGRFTISRDNAKNTVYLQMKSLKPEDTAVYDCAVDYRAYHYYRYDYWGQGTQVTVSS | low polyreactivity |
| KVQLVESGGGLVQAGGSLRISCAASGFIFVDYAMGWYRQAPGKERELVAAISSSGSTTYADSVKGRFTISRDNAKNIVYLQMNSLKPEDTAVYYCNADAEVVPGEYDYWGQGTQVTVSS | low polyreactivity |
| KVQLVESGGGLVQAGGSLRLSCAASGIIFFPYAMAWYRQAPGKERELVASINISDSSTYYADSVKGRFTISRDNAKKTVYLQMNSLKPEDTAVYYGAADNRGDSWYWDGYWGQGTQVTVSS | low polyreactivity |
| KVQLVESGGGLVQAGGSLRLSCAASGLTFSVYAMGWYRQAPGKERELVAAITNSGGSTYYADSVKGRFTISRDNAKNTVYLQMNSLIPEDTAVYYCAARYSTYYSGPPGLHLDYYYWGQGTQVTVSS | low polyreactivity |
